According to patent US20120171210A1, “METHODS AND COMPOSITIONS FOR INHIBITING C-MET DIMERIZATION AND ACTIVATION” (Genentech, Inc., priority 2003, published 2012):

What was measured:
MAPK = MAPK phosphorylation in A549 cells (immunoblot); assay type: cell-based, Human; conditions: A549 cells transfected with Met deletion mutants, vs mock
Experimental: (§1) Cell lines were obtained from American Type Culture Collection (ATCC). 293 cells were maintained in DMEM supplemented with 10% FBS (Sigma), penicillin/streptomycin (GIBCO), and glutamine A549, H441, and MDA-MB-435 cells were maintained in 50:50 DMEM/F12 (Cellgro) supplemented with 10% FBS, penicillin/streptomycin, and glutamine Cells were transfected with 1-12 μg of the indicated constructs using Lipofectamine 2000 (Invitrogen) according to manufacturer's instructions. Twenty-four hrs later cells were harvested with 1% NP40 lysis buffer containing Complete protease inhibitor cocktail tablet and phosphatase inhibitor cocktail 2 (Roche and Sigma, respectively). For Met tyrosine phosphorylation and MAPK phosphorylation studies, cells were serum-starved for 2 hr with 0.5% BSA. Cells treated with 10 μg/ml anti-Met 5D5-Fab or rSema were incubated for an additional 1 hr prior to lysis. Cell debris was centrifuged and the supernatant was precleared with Protein A Sepharose (Sigma) or Protein G-Plus agarose beads (Santa Cruz) for 1 hr. 500 μg of lysates was then immunoprecipitated with 10 μg 5D5 antibody (Genentech) or 35 ul of Met (C-28) agarose conjugate (Santa Cruz) overnight at 4° C. with rotation. For HGF binding studies, 500 μg of lysates were incubated with 5 μg scHGF or HGF followed by immunoprecipitation with 1 μg of V5 antibody. Protein A or G beads were added for an additional 2 hrs before immunoprecipitates were washed 3 times with 1% NP40 lysis buffer. After addition of 2× sample buffer with 10 mM DTT, the samples were run on 4-12% Tris-glycine gels (Invitrogen). […] Proteins were detected by enhanced chemiluminescence (ECL-Plus, Amersham).
(§2) Human tumor cells were treated with increasing concentrations of rSema and analyzed for Met tyrosine phosphorylation and downstream activation of mitogen activated protein kinase (MAPK) upon HGF stimulation. […]

Met = Met (Homo sapiens, UniProt P08581); assay: Met tyrosine phosphorylation in A549 cells (immunoprecipitation / phosphotyrosine immunoblot); assay type: cell-based; parameters: endogenous in cells; host or cells: A549 (lung carcinoma); conditions: A549 cells transfected with Met deletion mutants, vs mock
Experimental: as §1, §2

Chain of Met (P08581 308-1390, one chain of several): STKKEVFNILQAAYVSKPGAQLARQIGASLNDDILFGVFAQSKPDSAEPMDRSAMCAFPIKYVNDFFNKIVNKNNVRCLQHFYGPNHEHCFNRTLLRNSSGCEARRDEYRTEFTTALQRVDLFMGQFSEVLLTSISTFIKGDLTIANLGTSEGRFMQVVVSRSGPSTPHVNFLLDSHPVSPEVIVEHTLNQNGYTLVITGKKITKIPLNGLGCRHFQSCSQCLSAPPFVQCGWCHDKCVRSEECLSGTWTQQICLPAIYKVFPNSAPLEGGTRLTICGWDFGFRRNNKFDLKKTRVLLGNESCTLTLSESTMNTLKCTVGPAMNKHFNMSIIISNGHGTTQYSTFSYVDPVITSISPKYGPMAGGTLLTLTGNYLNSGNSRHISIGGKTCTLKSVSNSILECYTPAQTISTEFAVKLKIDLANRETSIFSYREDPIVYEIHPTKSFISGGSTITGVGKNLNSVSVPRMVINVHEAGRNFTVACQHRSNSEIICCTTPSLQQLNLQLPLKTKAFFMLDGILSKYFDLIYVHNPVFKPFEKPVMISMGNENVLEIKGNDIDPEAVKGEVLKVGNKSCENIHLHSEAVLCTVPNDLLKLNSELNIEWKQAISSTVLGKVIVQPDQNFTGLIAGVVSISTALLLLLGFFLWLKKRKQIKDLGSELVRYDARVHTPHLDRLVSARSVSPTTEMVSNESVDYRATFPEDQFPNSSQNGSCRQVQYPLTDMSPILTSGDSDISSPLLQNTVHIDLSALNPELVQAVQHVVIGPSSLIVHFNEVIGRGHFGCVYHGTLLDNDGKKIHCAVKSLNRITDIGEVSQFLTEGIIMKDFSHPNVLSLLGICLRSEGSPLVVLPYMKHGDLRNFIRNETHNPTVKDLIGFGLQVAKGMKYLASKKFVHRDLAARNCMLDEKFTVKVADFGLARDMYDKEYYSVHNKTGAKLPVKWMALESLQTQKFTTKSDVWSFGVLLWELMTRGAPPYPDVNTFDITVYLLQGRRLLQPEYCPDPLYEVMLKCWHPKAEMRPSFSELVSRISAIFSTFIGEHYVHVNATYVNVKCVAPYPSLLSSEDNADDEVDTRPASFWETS

endogenous Met tyrosine phosphorylation in transfectants (Met): attenuation
B1: EC-WT: membrane-bound extracellular Met construct containing the Sema domain, V5/His tagged, expressed by transfection (protein, UniProt P08581 25-932, looked up)
extracellular domain: ECKEALAKSEMNVNMKYQLPNFTAETPIQNVILHEHHIFLGATNYIYVLNEEDLQKVAEYKTGPVLEHPDCFPCQDCSSKANLSGGVWKDNINMALVVDTYYDDQLISCGSVNRGTCQRHVFPHNHTADIQSEVHCIFSPQIEEPSQCPDCVVSALGAKVLSSVKDRFINFFVGNTINSSYFPDHPLHSISVRRLKETKDGFMFLTDQSYIDVLPEFRDSYPIKYVHAFESNNFIYFLTVQRETLDAQTFHTRIIRFCSINSGLHSYMEMPLECILTEKRKKRSTKKEVFNILQAAYVSKPGAQLARQIGASLNDDILFGVFAQSKPDSAEPMDRSAMCAFPIKYVNDFFNKIVNKNNVRCLQHFYGPNHEHCFNRTLLRNSSGCEARRDEYRTEFTTALQRVDLFMGQFSEVLLTSISTFIKGDLTIANLGTSEGRFMQVVVSRSGPSTPHVNFLLDSHPVSPEVIVEHTLNQNGYTLVITGKKITKIPLNGLGCRHFQSCSQCLSAPPFVQCGWCHDKCVRSEECLSGTWTQQICLPAIYKVFPNSAPLEGGTRLTICGWDFGFRRNNKFDLKKTRVLLGNESCTLTLSESTMNTLKCTVGPAMNKHFNMSIIISNGHGTTQYSTFSYVDPVITSISPKYGPMAGGTLLTLTGNYLNSGNSRHISIGGKTCTLKSVSNSILECYTPAQTISTEFAVKLKIDLANRETSIFSYREDPIVYEIHPTKSFISGGSTITGVGKNLNSVSVPRMVINVHEAGRNFTVACQHRSNSEIICCTTPSLQQLNLQLPLKTKAFFMLDGILSKYFDLIYVHNPVFKPFEKPVMISMGNENVLEIKGNDIDPEAVKGEVLKVGNKSCENIHLHSEAVLCTVPNDLLKLNSELNIEWKQAISSTVLGKVIVQPDQNFT
modifications: extracellular domain V5/His tag, membrane-bound
phospho-MAPK in transfectants (MAPK): attenuation
